In patent US20250066455A1 (published 2025):

Tests used:
RBD = RBD (SARS-CoV-2, UniProt P0DTC2 319-541); experiment: ELISA
SARS-CoV-2 WT RBD = SARS-CoV-2 WT RBD (SARS-CoV-2, UniProt P0DTC2 319-541); experiment: BLI
[1] = biological target: T1, SARS-CoV-2 spike receptor-binding domain (RBD) (SARS-CoV-2, UniProt P0DTC2 319-541); experiment: BLI
[2] = biological target: T1, SARS-CoV-2 spike receptor-binding …; experiment: ELISA

B1: REGN10987 (antibody, V domains shown)
VH: QVQLVESGGGVVQPGRSLRLSCAASGFTFSNYAMYWVRQAPGKGLEWVAVISYDGSNKYYADSVKGRFTISRDNSKNTLYLQMNSLRTEDTAVYYCASGSDYGDYLLVYWGQGTLVTVSS
VL: QSALTQPASVSGSPGQSITISCTGTSSDVGGYNYVSWYQQHPGKAPKLMIYDVSKRPSGVSNRFSGSKSGNTASLTISGLQSEDEADYYCNSLTSISTWVFGGGTKLTVLR
IC50 (RBD): 0.298 µg/mL
Kd (SARS-CoV-2 WT RBD): 17.6 nM

B2: PDI 42 (antibody, V domains shown)
VH: EVQLVESGGGLVQPGGSLRLSCAASGLTVSSNYMSWVRQAPGKGLEWVSVFYPGGSTYNADSVKGRFTISRDNSKNTLYLQMNSLRAEDTAVYYCARDAVYYGMDVWGQGTTVTVSS
VL: not shown
Kd [1]: 1.1 nM
IC50 [2]: 0.31 µg/mL

B3: PDI 96 (antibody, V domains shown)
VH: LVQLVQSGAEVKKPGASVKISCKASGYTFTSYYMHWVRQAPGQGLEWMGIINPSGGGTSYAQKFQGRVTMTRDTSTSTVYMELTSLRSDDTAVYYCAKDRVTIFWGNGMDVWGQGTTVTVSS
VL: not shown
Kd [1]: 2.6 nM
IC50 [2]: 0.346 µg/mL

B4: REGN10933 (antibody, V domains shown)
VH: QVQLVESGGGLVKPGGSLRLSCAASGFTFSDYYMSWIRQAPGKGLEWVSYITYSGSTIYYADSVKGRFTISRDNAKSSLYLQMNSLRAEDTAVYYCARDRGTTMVPFDYWGQGTLVTVSS
VL: DIQMTQSPSSLSASVGDRVTITCQASQDITNYLNWYQQKPGKAPKLLIYAASNLETGVPSRFSGSGSGTDFTFTISGLQPEDIATYYCQQYDNLPLTFGGGTKVEIKR
IC50 (RBD): 0.293 µg/mL
Kd (SARS-CoV-2 WT RBD): 3.5 nM

B5: PDI 231 (antibody, V domains shown)
VH: EVQLVESGGGLIQPGGSLRLSCVASGLTVSSNYMNWVRQTPGKGLEWVSVIYSGGSTFYADSVKGRFTISRDNSKNTLFLQMNSLRAEDTAVYYCARVGGYCSSANCVSDVWGKGTTVTVSS
VL: DIQMTQSPSSLSASVGDRVTITCQASQDIRNYLNWYQQKPGKAPKIMIYDASILETGVPSRFSGSGSGTDFTFTISSLQPEDIATYYCQQYDNLPITFGQGTQLEIK
Kd [1]: 0.38 nM
IC50 [2]: 0.328 µg/mL
